{
  "source": "patent US20030211076A1",
  "about": "“Compositions and methods for treatment of proliferative disorders” (priority 2003, published 2003)",
  "key": {"[1]": {"system": "ERK1 and ERK2 MAP kinases", "assay": "FGF2-stimulated MAP kinase phosphorylation, Western blot", "format": "cell-based", "protocol": "Since activation of MAP kinases by FGF2 is one of the earliest mitogenic signaling events within cells (Maher), the effects of LO on FGF2-stimulated MAP kinase phosphorylation were tested by Western blot analysis using an antibody specific for phospho-extracellular signal-regulated kinases 1 and 2 (ERK1 and ERK2). The amount of total ERK1 and ERK2 MAP kinases within the same cell extracts was determined by using an antibody that recognizes both the phospho- and non-phospho-forms of ERK1 and ERK2. […] Cell extracts were prepared and equal amounts of proteins (25 μg) were analyzed by 10% SDS-PAGE. Immunoblotting was performed using antibodies specific for the active forms of ERK1 and ERK2 (A) and total ERKs (B)."}, "[2]": {"target": "T1, lysyl oxidase (LO) (Bos taurus, UniProt P33072)", "T1 construct": "per mature LO molecule (32 kD); from tissue", "T1 sequence (P33072 170-418)": "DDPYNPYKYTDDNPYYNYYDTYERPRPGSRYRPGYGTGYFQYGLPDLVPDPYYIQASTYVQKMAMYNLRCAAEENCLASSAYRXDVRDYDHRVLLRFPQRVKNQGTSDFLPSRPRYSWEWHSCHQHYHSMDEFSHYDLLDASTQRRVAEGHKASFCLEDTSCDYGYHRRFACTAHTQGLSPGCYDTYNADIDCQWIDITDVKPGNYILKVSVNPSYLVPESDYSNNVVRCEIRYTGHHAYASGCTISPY", "assay": "LO-dependent H2O2 release, horseradish peroxidase-coupled fluorescence assay (substrate potential for LO)", "format": "biochemical", "settings": "for substrate of LO (in words): factor as sole substrate, LO-dependent H2O2 release in vitro; for molar ratio of H2O2 released per mole of PDGF-AB at the plateau: 0.11 μM LO, 0.46 μM PDGF-AB", "protocol": "The oxidation of a primary amine substrate by LO yields stoichiometric amounts of the corresponding aldehyde, hydrogen peroxide and ammonia, as shown: RCH2NH2+O2+H2O→RCHO+H2O2+NH3 (Kagan, 1986). To assess the substrate potential of FGF2, LO-dependent H2O2 release was monitored in assays using FGF2 as the sole substrate, using both the optimum temperature for LO activity of 55° C. and the physiological temperature of 37° C. (Trackman et al., 1981).\nLO reaction with FGF2 as a substrate was assessed by a horseradish peroxidase-coupled fluorescence assay for H2O2 production. Reaction mixtures contained 0.25 mg of sodium homovanillate(HVA), 40 μg of HRP, and FGF2 at doses as indicated below in 0.05 M sodium borate buffer, pH 8.2, in a final volume of 2 ml. Assays were initiated by the addition of LO to reaction mixtures. H2O2 release was continuously monitored at excitation and emission wavelengths of 315 and 425 nm, respectively, at a constant temperature of 55° C. or 37° C., as specified, in the thermostatted cuvette chamber of an SLM Aminco Bowman Series 2 Luminescence Spectrometer. All activity data were corrected for background rates of H2O2 release determined in complete assay mixtures supplemented with 200 μM BAPN, an irreversible inhibitor of LO. In FIG. 4, solid curves represent the time course of H2O2 release at 55° C. in the reaction of 0.16 μM LO with 0.23 (a), 0.45 (b) and 0.9 (c) μM FGF2, respectively. Dotted curve (d) represents the time course of H2O2 release in the reaction of 0.16 μM LO with 0.9 μM FGF2 at 37° C. The same data were obtained from three separate experiments.\nUsing the fluorometric assay (Trackman et al., 1981) to monitor LO-dependent H2O2 release in vitro, the substrate potential of other growth factors was also assessed. Major members of the FGF family tested included FGF 1, 4, 5, 6, 7 and EGF (note: All factors are human recombinant forms purchased from R & D Systems, Inc., Minneapolis, Minn.).\nA human recombinant disulfide-linked dimer of VEGF165 (MW: 42 kDa)(R & D Systems) as a sole substrate was tested by using the standard in vitro LO catalysis assays as described above for FIG. 4 (Trackman et al., 1981). Curves represent the time course of H2O2 release at 55° C. (a) or 37° C. (b) in the reaction of 0.10 μM LO with 0.45 μM VEGF165. All activity data were corrected for background rates of H2O2 release determined in complete assay mixtures supplemented with the same amounts of LO preincubated with 100 μM BAPN for 15 min at 37° C. The same data were obtained from three separate experiments.\nThe standard in vitro LO catalysis assays as described above for FIG. 4 (Trackman et al., 1981) using human recombinant PDGF-AB (R & D Systems) as a sole substrate was tested. […] In FIG. 19, curves represent the time course of H2O2 release at 55° C. (a) and 37° C. (b) in the reaction of 0.11 μM LO with 0.46 μM PDGF-AB, respectively. All activity data were corrected for background rates of H2O2 release determined in complete assay mixtures supplemented with the same amounts of LO preincubated with 100 μM BAPN for 15 minutes at 37° C. The same data were obtained from three separate experiments.\nTo analyze the substrate potential of Tat, the standard in vitro LO catalysis assays as described in FIG. 4 (Trackman et al., 1981) was performed at the optimum temperature of 55° C. and at the physiological temperature of 37° C. A recombinant Tat with 9 lysines in a total of 86 amino acids was used as a sole substrate. FIG. 12A represents a dose and temperature-dependent response. Curves represent the time course of H2O2 release at 55° C. (solid) or 37° C. (dotted) in the reaction of 0.10 μM LO with 0.22 (a and d), 0.43 (b and e) and 0.85 (c and f) μM Tat, respectively. All activity data were corrected for background rates of H2O2 release determined in complete assay mixtures supplemented with the same amounts of LO preincubated with 100 μM BAPN for 15 min at 37° C. […]"}, "[3]": {"system": "growth-arrested Swiss 3T3 cells", "assay": "FGF2-stimulated cell cycle progression, FACS analysis", "format": "cell-based", "settings": "5 ng FGF2/ml (0.28 nM FGF2), 20 h", "protocol": "The activity of native and LO-oxidized FGF2 on cell cycle progression was evaluated by using fluorescence activated cell sorting (FACS) analysis (Darzynkiewicz et al.). Swiss 3T3 cells were growth-arrested by incubation in 0.3% fetal bovine serum (FBS)/Dulbecco's Modified Eagle's Medium (DMEM) for 3 days. As depicted in FIGS. 6A-6C, the prepared growth-arrested cells were treated for 20 h at 37° C. with or without FGF2, LO, BAPN or their combinations as indicated. After treatment, cells were washed, suspended by treatment with trypsin, washed again and fixed in 0.5% formaldehyde/0.1% Triton X-100/PBS for 15 minutes on ice followed by incubation of samples in 10 μg propidium iodide and 20 units RNAse per ml of PBS for 60 minutes in the dark for DNA staining. The fluorescence intensities of each sample of 10,000 cells in G1, S and G2/M phases were measured by flow cytometry at the FL2 setting of the fluorescence activated cell sorting (FACS) instrument (Becton-Dickinson Corp.). […] LO was presented at 10 nM, FGF2 at 5 ng ml^−1 and BAPN at 100 μM. Data represent the means (+sd) of three separate experiments each assessed with duplicate dishes."}, "[4]": {"system": "FGF2 nuclear localization in Swiss 3T3 cells", "assay": "FGF2 nuclear localization, immunochemical staining", "format": "cell-based", "settings": "0.28 nM FGF2 for 1 h", "protocol": "After endocytosis, a fraction of exogenous FGF2 can enter the nucleus of a variety of cell types in a cell cycle-dependent manner (Mason; Rifkin et al.; Prats et al.; Stachowiak et al., 1996; Arese et al.; Baldin et al.). Thus, the possibility that oxidation of FGF2 by LO affects the nuclear localization of this growth factor was tested by using immunochemistry. In FIGS. […]"}, "[5]": {"system": "growth-arrested Swiss 3T3 cells", "assay": "PDGF-AB-stimulated cell cycle progression, FACS analysis", "format": "cell-based", "settings": "15 ng PDGF-AB/ml (0.56 nM), 20 h", "protocol": "Growth-arrested Swiss 3T3 cells were incubated for 20 h at 37° C. with or without PDGF-AB, LO, BAPN or their combinations as indicated. After incubation, FACS analysis was carried out to characterize the cell cycle progression under different conditions as described in FIG. 6. FIG. 20A represents a dose response of PDGF-AB in cell cycle progression. FIG. 20B represents the LO inhibition of PDGF-AB-stimulated cell cycle progression (the control represents cells treated with 15 ng ml^−1 PDGF-AB in the absence of added LO). FIG. 20C represents the effects of inactivation of LO by BAPN on PDGF-AB-stimulated the cell cycle progression. LO: 15 nM, PDGF-AB: 15 ng ml^−1, BAPN: 100 AM. Data represent the means (±sd) of three separate experiments each assessed with triplicate dishes."}},
  "data": [
    {"molecule": "O=c1c(-c2ccc(O)cc2)coc2cc(O)cc(O)c12", "note": "[genistein, reference compound]", "values": [
      {"measurement": "MAP kinase activation by FGF2", "setting": "[1]; 200 μM genistein", "result": "inhibited"}
    ]},
    {"molecule": "FGF2: 18 kDa human recombinant FGF2, 14 lysine residues", "values": [
      {"measurement": "maximum H2O2 released per mole of FGF2", "setting": "[2]; 37° C., 0.16 μM LO, 0.9 μM FGF2", "result": "5.3 moles of H2O2 per mole of FGF2"},
      {"measurement": "molar ratio H2O2 released per mole of FGF2 at the plateau", "setting": "[2]; 55° C., 0.16 μM LO, 0.23 μM FGF2", "result": 14.1},
      {"measurement": "molar ratio H2O2 released per mole of FGF2 at the plateau", "setting": "[2]; 55° C., 0.16 μM LO, 0.45 μM FGF2", "result": 14.6},
      {"measurement": "molar ratio H2O2 released per mole of FGF2 at the plateau", "setting": "[2]; 55° C., 0.16 μM LO, 0.9 μM FGF2", "result": 14.2},
      {"measurement": "molar ratio H2O2 released per mole of FGF2, mean±standard deviation", "setting": "[2]; 55° C., 0.16 μM LO, mean over 0.23, 0.45 and 0.9 μM FGF2", "result": "14.3±0.3"},
      {"measurement": "substrate of LO (in words)", "setting": "[2]", "result": "productive substrate for LO"},
      {"measurement": "relative number of cells entering the S-M phases versus control (maximum effect)", "setting": "[3]", "result": 4.7, "unit": "fold"},
      {"measurement": "tyrosine phosphorylation of 42- and 44-kDa ERKs", "setting": "[1]; 5 ng/ml FGF2, 10 min, versus control", "result": "markedly increased"},
      {"measurement": "nuclear FGF2 staining", "setting": "[4]", "result": "significantly increased nuclear staining"}
    ]},
    {"molecule": "PDGF-AB: 27 kDa human recombinant PDGF-AB heterodimer, 21 lysine residues", "values": [
      {"measurement": "cells entering the S-M phases versus control (maximum effect)", "setting": "[5]", "result": 3.3, "unit": "fold"},
      {"measurement": "molar ratio of H2O2 released per mole of PDGF-AB at the plateau", "setting": "[2]; 37° C.", "result": 3.0},
      {"measurement": "molar ratio of H2O2 released per mole of PDGF-AB at the plateau", "setting": "[2]; 55° C.", "result": 19.5},
      {"measurement": "substrate of LO (in words)", "setting": "[2]", "result": "substrates of LO"}
    ]}
  ]
}
